The target of assay [1] is T1, human CD40 (human, UniProt P25942 21-193).
T1 construct: also called huCD40; TNFRSF5
The experiment in a line: ELISA; further experiments (Table 6 ELISA), reference value in the text. On the procedure:
(§1) An ELISA was performed to confirm that the improved antibodies retained affinity for CD40.

Assay [2] has as its target T1, human CD40. The experiment in a line: ELISA; first screen of the VL/VH pairs (Table 4), head in nM.
Assay [3] has as its target T1, human CD40. Description: ELISA.
In assay [4] the target is T1, human CD40. The experiment in a line: ELISA. The protocol: as §1
The source holds these as a separate data set. A general note: In an ELISA, binding on a coated surface is turned into a signal by an enzyme label.

Assay [5] concerns the target T1, human CD40. The experiment in a line: antigen binding (method not named; ELISA in the rest of Example 2).
Assay [6] deals with T1, human CD40. The experiment in a line: ELISA; further experiments (Table 6), 4 day titer. The protocol:
as §1

This passage reports Kd and Kapp results from patent publication US20200339700A1 (Bristol-Myers Squibb, published 2020).

Some results are limits rather than exact numbers.

T1 sequence (P25942 21-193 limits assumed): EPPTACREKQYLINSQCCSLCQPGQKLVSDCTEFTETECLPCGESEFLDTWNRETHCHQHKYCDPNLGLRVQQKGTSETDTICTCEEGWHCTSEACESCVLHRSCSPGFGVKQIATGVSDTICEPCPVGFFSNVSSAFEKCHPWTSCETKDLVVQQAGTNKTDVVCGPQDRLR

B1: antibody 12D6-24 (antibody, human IgG1, kappa, V domains shown)
VH: QVQLVQSGAEVKKPGASVKVSCKASGYTFTGYNMNWVRQAPGQGLEWMGNIDPYYGNTNYNQKFKGRVTMTTDTSTSTAYMELRSLRSDDTAVYYCARLGLQLYALDYWGQGTTVTVSS
VL: DIVMTQTPLSLPVTPGEPASISCRSSQSLVHSNANTYLHWYLQKPGQSPQLLIYKLTNRFFGVPDRFSGSGSGTDFTLKISRVEAEDVGVYYCSQSIHVPWTFGGGTKVEIKR
notes: also called mAb 12D6-24; unmodified 12D6-24
As to B1, the Kd with human CD40 [1] was found to be 0.24 nM; with human CD40 [2], 0.2 nM.

B2: 12D6-24 variant L1H2 (antibody, human IgG1, V domains shown)
VH: QVQLVQSGAEVKKPGSSVKVSCKASGYTFTGYNMNWVRQAPGQGLEWMGNIDPYYGNTNYNQKFKGKTTLTADKSTSTAYMELSSLRSDDTAVYYCARLGLQLYALDYWGQGTLVTVSS
VL: DIVMTQTPLSLPVTPGEPASISCRSSQSLVHSNANTYLHWYLQKPGQSPQLLIYKLTNRFFGVPDRFSGSGSGTDFTLKISRVEAEDVGVYYCSQSIHVPWTFGGGTKVEIK
The molecule B2 had a Kd in the assay with human CD40 [3] of 0.6 nM.

B3: 12D6-24 variant L2H1 (antibody, human IgG1, V domains shown)
VH: QVQLVQSGAEVKKPGASVKVSCKASGYTFTGYNMNWVRQAPGQGLEWMGNIDPYYGNTNYNQKFKGRVTMTTDTSTSTAYMELRSLRSDDTAVYYCARLGLQLYALDYWGQGTTVTVSS
VL: EIVMTQSPATLSVSPGERATLSCRASQSVSSNLAWYQQKPGQAPRLLIYKLTNRFFGIPARFSGSGSGTDFTLTISRVEAEDFAVYYCQQSIHVPWTFGQGTKVEIK
Turning to B3, in the assay with human CD40 [3], the dissociation constant Kd was more than 100 nM.

B4: 12D6-24 variant L3H1 (antibody, human IgG1, V domains shown)
VH: QVQLVQSGAEVKKPGASVKVSCKASGYTFTGYNMNWVRQAPGQGLEWMGNIDPYYGNTNYNQKFKGRVTMTTDTSTSTAYMELRSLRSDDTAVYYCARLGLQLYALDYWGQGTTVTVSS
VL: EIVMTQSPATLSVSPGERATLSCRSSQSLVHSNANTYQQKPGQAPRLLIYKLTNRFFGIPDRFSGSGSGTDFTLTISRVEAEDFAVYYCQQSIHVPWTFGQGTKVEIK
Molecule B4 registered a Kd with human CD40 [3] of more than 100 nM.

B5: 12D6-24 variant L5H1 (antibody, human IgG1, V domains shown)
VH: QVQLVQSGAEVKKPGASVKVSCKASGYTFTGYNMNWVRQAPGQGLEWMGNIDPYYGNTNYNQKFKGRVTMTTDTSTSTAYMELRSLRSDDTAVYYCARLGLQLYALDYWGQGTTVTVSS
VL: EIVMTQSPATLSVSPGERATLSCRASQSVSSNLAWYLHWYLQKPGQAPRLLIYKLTNRFFGIPARFSGSGSGTDFTLTISRVEAEDFAVYYCQQSIHVPWTFGQGTKVEIK
Regarding B5, the Kd in the assay with human CD40 [3] amounted to 1.6 nM.

B6: 12D6-24-L4H4 (antibody, human IgG1, V domains shown)
VH: QVQLVQSGAEVKKPGASVKVSCKASGYTFTGYNMNWVRQAPGQGLEWMGNIDPYYGNTNYNQKFKGRTTLTADTSTSTAYMELSSLRSDDTAVYYCARLGLQLYALDYWGQGTLVTVSS
VL: DIVLTQSPDSLAVSLGERATINCRASQSLVHSNANTYLHWYQQKPGQPPKLLIYKLTNRFFGVPDRFSGSGSGTDFTLTISSLQAEDVAVYYCQQSIHVPWTFGQGTKLEIK
With B6, the Kd with human CD40 [4] stood at 240 nM. Besides, the Kapp with human CD40 [5] was 0.24 nM.

B7: 12D6-24 variant L5H2 (antibody, human IgG1, V domains shown)
VH: QVQLVQSGAEVKKPGSSVKVSCKASGYTFTGYNMNWVRQAPGQGLEWMGNIDPYYGNTNYNQKFKGKTTLTADKSTSTAYMELSSLRSDDTAVYYCARLGLQLYALDYWGQGTLVTVSS
VL: EIVMTQSPATLSVSPGERATLSCRASQSVSSNLAWYLHWYLQKPGQAPRLLIYKLTNRFFGIPARFSGSGSGTDFTLTISRVEAEDFAVYYCQQSIHVPWTFGQGTKVEIK
The molecule B7 displayed a Kd with human CD40 [3] of 1.6 nM.

B8: 12D6-24 variant L1H4 (antibody, human IgG1, V domains shown)
VH: QVQLVQSGAEVKKPGASVKVSCKASGYTFTGYNMNWVRQAPGQGLEWMGNIDPYYGNTNYNQKFKGRTTLTADTSTSTAYMELSSLRSDDTAVYYCARLGLQLYALDYWGQGTLVTVSS
VL: DIVMTQTPLSLPVTPGEPASISCRSSQSLVHSNANTYLHWYLQKPGQSPQLLIYKLTNRFFGVPDRFSGSGSGTDFTLKISRVEAEDVGVYYCSQSIHVPWTFGGGTKVEIK
In turn, B8 came in with an equilibrium dissociation constant (Kd) with human CD40 [4] of 230 nM. The Kapp in the assay with human CD40 [5] is 0.22 nM.

B9: 12D6-24 variant L4H2 (antibody, human IgG1, V domains shown)
VH: QVQLVQSGAEVKKPGSSVKVSCKASGYTFTGYNMNWVRQAPGQGLEWMGNIDPYYGNTNYNQKFKGKTTLTADKSTSTAYMELSSLRSDDTAVYYCARLGLQLYALDYWGQGTLVTVSS
VL: DIVLTQSPDSLAVSLGERATINCRASQSLVHSNANTYLHWYQQKPGQPPKLLIYKLTNRFFGVPDRFSGSGSGTDFTLTISSLQAEDVAVYYCQQSIHVPWTFGQGTKLEIK
For B9, the Kd in the assay with human CD40 [6] was found to be 0.25 nM; with human CD40 [2], 0.2 nM. In the assay with human CD40 [5], this molecule gave a Kapp of 0.25 nM.

B10: 12D6-24 variant L2H2 (antibody, human IgG1, V domains shown)
VH: QVQLVQSGAEVKKPGSSVKVSCKASGYTFTGYNMNWVRQAPGQGLEWMGNIDPYYGNTNYNQKFKGKTTLTADKSTSTAYMELSSLRSDDTAVYYCARLGLQLYALDYWGQGTLVTVSS
VL: EIVMTQSPATLSVSPGERATLSCRASQSVSSNLAWYQQKPGQAPRLLIYKLTNRFFGIPARFSGSGSGTDFTLTISRVEAEDFAVYYCQQSIHVPWTFGQGTKVEIK
As for B10, in the assay with human CD40 [3], the equilibrium dissociation constant (Kd) is more than 100 nM.

B11: 12D6-24-L4H1 (antibody, human IgG1, V domains shown)
VH: QVQLVQSGAEVKKPGASVKVSCKASGYTFTGYNMNWVRQAPGQGLEWMGNIDPYYGNTNYNQKFKGRVTMTTDTSTSTAYMELRSLRSDDTAVYYCARLGLQLYALDYWGQGTTVTVSS
VL: DIVLTQSPDSLAVSLGERATINCRASQSLVHSNANTYLHWYQQKPGQPPKLLIYKLTNRFFGVPDRFSGSGSGTDFTLTISSLQAEDVAVYYCQQSIHVPWTFGQGTKLEIK
B11: the Kd in the assay with human CD40 [6] came to 0.25 nM; with human CD40 [2] it was 0.2 nM. The molecule further gave a Kapp with human CD40 [5] of 0.25 nM.

The term Kd denotes the concentration at which binding is half-saturated.
